From paper PMC8753184

Test: preparative SEC and analytical FSEC homogeneity
Conditions: glycan lost; control: mG6PC1-WT

B1: mouse glucose-6-phosphatase catalytic subunit 1 (mG6PC1): N96A (protein)
parent chain: MEEGMNILHDFGIQSTRYLQVNYQDSQDWFILVSVIADLRNAFYVLFPIWFHLKETVGINLLWVAVVGDWFNLVFKWILFGQRPYWWVLDTDYYSNSSVPIIKQFPVTCETGPGSPSGHAMGAAGVYYVMVTSTLAIFRGKKKPTYGFRCLNVILWLGFWAVQLNVCLSRIYLAAHFPHQVVAGVLSGIAVAETFSHIRGIYNASLRKYCLITIFLFGFALGFYLLLKGLGVDLLWTLEKAKRWCERPEWVHLDTTPFASLFKNLGTLLGLGLALNSSMYRKSCKGELSKLLPFRFACIVASLVLLHLFDSLKPPSQVELIFYILSFCKSATVPFASVSLIPYCLARILGQTHKKSL
stability_or_folding: no change
